Broadly, the IC50 is the point on the concentration scale where inhibition reaches its midpoint.

Sequences and labels used below:
T1: HLA-DR DRB1*1101 (human)
T1 chain 1: not shown
T1 chain 2: not shown

T2: HLA-DR DRB1*0404 (human)
T2 chain 1: not shown
T2 chain 2: not shown

T3: HLA-DR DRB1*0802 (human)
T3 chain 1: not shown
T3 chain 2: not shown

T4: HLA-DR DRB1*1302 (human)
T4 chain 1: not shown
T4 chain 2: not shown

T5: HLA-DR DRB1*0301 (human)
T5 chain 1: not shown
T5 chain 2: not shown

T6: HLA-DR DRB1*0405 (human)
T6 chain 1: not shown
T6 chain 2: not shown

T7: HLA-DR DRB4*0101 (human)
T7 chain 1: not shown
T7 chain 2: not shown

T8: HLA-DR DRB5*0101 (human)
T8 chain 1: not shown
T8 chain 2: not shown

T9: HLA-DR DRB1*0701 (human)
T9 chain 1: not shown
T9 chain 2: not shown

T10: HLA-DR DRB1*0401 (human)
T10 chain 1: not shown
T10 chain 2: not shown

T11: HLA-DR DRB1*1201 (human)
T11 chain 1: not shown
T11 chain 2: not shown

T12: HLA-DR DRB1*0101 (human)
T12 chain 1: not shown
T12 chain 2: not shown

The target of the first experiment is T1, HLA-DR DRB1*1101 (human). Nature of the experiment: radioligand inhibition, purified HLA-DR. As to conditions: remark: other sources report otherwise.
As to LQRYSEDPTVPLPSE [Peptide 9019.0099], the IC50 came to 94 nM.
LLTFWNPPTTAKLTI [CEA.24 peptide 9019.0105] came in with an IC50 of 52 nM.
TEILKGGVLIQRNPQ [Her2/neu.146] gave an IC50 of 692 nM.
With SITVSASGTSPGLSA [CEA.671 peptide 9919.0143], the IC50 came to 3320 nM.
EALLESSLRQAQQNM [Cyclin D1.252]: the IC50 was 756 nM.

The next experiment concerns the target T2, HLA-DR DRB1*0404 (human). Nature of the experiment: radioligand inhibition, purified HLA-DR. As to conditions: remark: other sources report otherwise.
As for LQRYSEDPTVPLPSE [Peptide 9019.0099], the IC50 stood at 13100 nM. This lies in the double-digit micromolar range.
Still for that read-out and setting: the value for LLTFWNPPTTAKLTI [CEA.24 peptide 9019.0105] was 52 nM; that for TEILKGGVLIQRNPQ [Her2/neu.146] was 32 nM.
In the case of SITVSASGTSPGLSA [CEA.671 peptide 9919.0143], the IC50 was found to be 11 nM.
Molecule TAKLTIESTPFNVAE [CEA.33 peptide 9019.0106] yielded an IC50 of 41 nM.
For the molecule EALLESSLRQAQQNM [Cyclin D1.252], the IC50 stood at 1020 nM.

The next experiment has as its target T3, HLA-DR DRB1*0802 (human). Nature of the experiment: radioligand inhibition, purified HLA-DR. The settings on record: remark: other sources report otherwise.
In turn, RWCIPWQRLLLTASL [CEA.10 peptide 9019.0104] yielded an IC50 of 263 nM.
PPSMVAAGSVVAAVQ [Cyclin D1.109] displayed an IC50 of 1400 nM. Against the preceding molecule, the IC50 is about 5.3-fold higher.
LKSGMKELAVFREKV [Peptide 9019.0185] registered an IC50 of 260 nM.

A further experiment addresses T4, HLA-DR DRB1*1302 (human). Nature of the experiment: radioligand inhibition, purified HLA-DR. The settings on record: remark: other sources report otherwise.
The molecule RWCIPWQRLLLTASL [CEA.10 peptide 9019.0104] returned an IC50 of 2330 nM.
On to PPSMVAAGSVVAAVQ [Cyclin D1.109], for which the IC50 amounted to 55 nM. Against the preceding molecule, the IC50 is about 42-fold lower.
On to LQRYSEDPTVPLPSE [Peptide 9019.0099], for which the IC50 was 280 nM.
Same read-out and setting: the same measure for KLCIYTDNSIRPEEL [Cyclin D1.123]: 879 nM.
With TEILKGGVLIQRNPQ [Her2/neu.146], the IC50 is 343 nM.
Turning to SITVSASGTSPGLSA [CEA.671 peptide 9919.0143], the IC50 is 592 nM.
With TAKLTIESTPFNVAE [CEA.33 peptide 9019.0106], the IC50 turned out to be 35 nM.
Take APTIRGDPECHLFYN [Peptide 9019.0022]: the IC50 stood at 1670 nM.
The same measure, in the same setting: the value for EALLESSLRQAQQNM [Cyclin D1.252] was 4760 nM.

The target in another experiment is T5, HLA-DR DRB1*0301 (human). The experiment in a line: radioligand inhibition, purified HLA-DR. As to conditions: remark: other sources report otherwise.
For RWCIPWQRLLLTASL [CEA.10 peptide 9019.0104], the IC50 turned out to be 7860 nM.
The same measure, in the same setting: the same measure for LQRYSEDPTVPLPSE [Peptide 9019.0099]: 18 nM.
For the molecule KLCIYTDNSIRPEEL [Cyclin D1.123], the IC50 is 64 nM.
On to ELAVFREKVTEQHRQ [Peptide 9019.0018], for which the IC50 amounted to 8620 nM. Against the preceding molecule, the IC50 is about 130-fold higher.
As for APTIRGDPECHLFYN [Peptide 9019.0022], the IC50 came out at 31 nM.
Take EALLESSLRQAQQNM [Cyclin D1.252]: the IC50 is 151 nM.

Another experiment deals with T6, HLA-DR DRB1*0405 (human). The experiment in a line: radioligand inhibition, purified HLA-DR. The settings on record: remark: other sources report otherwise.
In turn, LKSGMKELAVFREKV [Peptide 9019.0185] yielded an IC50 of 34 nM. In other words, the double-digit nanomolar range.
The molecule TEILKGGVLIQRNPQ [Her2/neu.146] showed an IC50 of 760 nM.
SITVSASGTSPGLSA [CEA.671 peptide 9919.0143] returned an IC50 of 3570 nM.

Another experiment deals with T7, HLA-DR DRB4*0101 (human). The experiment in a line: radioligand inhibition, purified HLA-DR. As to conditions: remark: other sources report otherwise.
PPSMVAAGSVVAAVQ [Cyclin D1.109] showed an IC50 of 91 nM. This lies in the double-digit nanomolar range.
KLCIYTDNSIRPEEL [Cyclin D1.123] showed an IC50 of 33 nM.
Consider TAKLTIESTPFNVAE [CEA.33 peptide 9019.0106], for which the IC50 turned out to be 53 nM.
Same read-out and setting: the value for APTIRGDPECHLFYN [Peptide 9019.0022] was 2510 nM; that for EALLESSLRQAQQNM [Cyclin D1.252] was 4030 nM.

The target of another experiment is T8, HLA-DR DRB5*0101 (human). Nature of the experiment: radioligand inhibition, purified HLA-DR. The settings on record: remark: other sources report otherwise.
As for KLCIYTDNSIRPEEL [Cyclin D1.123], the IC50 is 4620 nM.
For the molecule LLTFWNPPTTAKLTI [CEA.24 peptide 9019.0105], the IC50 came to 31 nM.
Same read-out and setting: the same measure for TEILKGGVLIQRNPQ [Her2/neu.146]: 1880 nM; for SITVSASGTSPGLSA [CEA.671 peptide 9919.0143]: 15100 nM.

The target of another experiment is T9, HLA-DR DRB1*0701 (human). Nature of the experiment: radioligand inhibition, purified HLA-DR. As to conditions: remark: other sources report otherwise.
In turn, KLCIYTDNSIRPEEL [Cyclin D1.123] came in with an IC50 of 1100 nM. In other words, the single-digit micromolar range.
On to LLTFWNPPTTAKLTI [CEA.24 peptide 9019.0105], for which the IC50 was determined as 3.7 nM.
Turning to TEILKGGVLIQRNPQ [Her2/neu.146], the IC50 worked out at 2490 nM.
The same measure, in the same setting: the value for SITVSASGTSPGLSA [CEA.671 peptide 9919.0143] was 1560 nM; that for APTIRGDPECHLFYN [Peptide 9019.0022] was 16800 nM.

The next experiment concerns the target T10, HLA-DR DRB1*0401 (human). The experiment in a line: radioligand inhibition, purified HLA-DR. As to conditions: remark: other sources report otherwise.
KLCIYTDNSIRPEEL [Cyclin D1.123] returned an IC50 of 90 nM.
Same read-out and setting: the value for TEILKGGVLIQRNPQ [Her2/neu.146] was 40 nM; that for SITVSASGTSPGLSA [CEA.671 peptide 9919.0143] was 75 nM.
In turn, APTIRGDPECHLFYN [Peptide 9019.0022] had an IC50 of 1640 nM.
Turning to EALLESSLRQAQQNM [Cyclin D1.252], the IC50 turned out to be 605 nM.

Another experiment deals with T11, HLA-DR DRB1*1201 (human). Nature of the experiment: radioligand inhibition, purified HLA-DR. As to conditions: remark: other sources report otherwise.
As for RWCIPWQRLLLTASL [CEA.10 peptide 9019.0104], the IC50 is 1560 nM.
Consider LLTFWNPPTTAKLTI [CEA.24 peptide 9019.0105], for which the IC50 turned out to be 3000 nM. This IC50 is about 1.9-fold higher than that of the molecule before.
Same read-out and setting: the same measure for TAKLTIESTPFNVAE [CEA.33 peptide 9019.0106]: 2310 nM.
In the case of APTIRGDPECHLFYN [Peptide 9019.0022], the IC50 is 16900 nM.

For another experiment, the target named is T12, HLA-DR DRB1*0101 (human). The experiment in a line: radioligand inhibition, purified HLA-DR. As to conditions: remark: other sources report otherwise.
Molecule PPSMVAAGSVVAAVQ [Cyclin D1.109] gave an IC50 of 6.8 nM.
Still for that read-out and setting: the same measure for KLCIYTDNSIRPEEL [Cyclin D1.123]: 1920 nM.
The same measure, in the same setting: the same measure for LLTFWNPPTTAKLTI [CEA.24 peptide 9019.0105]: 69 nM.
Molecule TEILKGGVLIQRNPQ [Her2/neu.146] returned an IC50 of 11 nM.
Still for that read-out and setting: the value for SITVSASGTSPGLSA [CEA.671 peptide 9919.0143] was 2810 nM.
As to APTIRGDPECHLFYN [Peptide 9019.0022], the IC50 was 4030 nM.
In turn, EALLESSLRQAQQNM [Cyclin D1.252] returned an IC50 of 8210 nM.

These data come from US20100310640A1.
